The record followed here is patent US20260234188A1, “CHEMOKINE-BINDING PEPTIDES” (Oxford University Innovation Limited, priority 2022, published 2026).

For the assay, the target named is CXL10_HUMAN (human) (UniProt P02778). The experiment in a line: cell-based or functional assay.
Sequence of CXL10_HUMAN (human) (P02778 22-98 limits assumed): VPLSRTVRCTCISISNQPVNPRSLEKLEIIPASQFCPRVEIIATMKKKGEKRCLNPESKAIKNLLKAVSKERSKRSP

With “EVA4_RHISA protein (from UniProt P0C8E9 24-127)”, the cell migration was 20 µM.
